Results on one substance are retold here after paper PMC3282893.

As a reminder, the Kd is the constant that tells how readily two partners part at equilibrium. A lower Kd goes with higher affinity.

This experiment deals with human IgG1 (solid phase in surface plasmon resonance) (human). The experiment can be described thus: SPR. (In SPR one partner is held on a chip, and binding of the other changes the refractive index at the surface.)

As for “soluble recombinant FcγRIIa-HR (high-responder, arginine R134 allele of FcγRIIa), glycosylated (from UniProt P12318 37-206) (receptor)”, the Kd is 500 µM.
